Data taken from the domain aggregation screens of Martell et al. (2025).

Assay: soluble fraction after stress (log2 fold change); higher = more stays soluble; pooled small domains, quantitative proteomics
Conditions: stress: 75 degC
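Also: 20 min heating vs room temperature control held 20 min.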

Q: Which “soluble fraction (log2)” value does the source give for “HMKIETVENPLLERTEISALFDSKSGSLTRKEAIDLISKKARIDSSTVYAIKLSNSSGSTRIIGLFY” here?
A: 0.16

Q: With “HMKIIDDIQEFAGVTKTQNTFFHIFNHLHQNGKQLILTSDRAPVMLQGMEERLLTRFKWGLVAELE” as the sequence, how does the “soluble fraction (log2)” value read?
A: 0.285

Q: For “HMKIKKIWFDGDYIYGMDERNNTYRQSLLWYSKLRNASAEERERYTFSTIGIHWRELDEDVSFESF”, which “soluble fraction (log2)” value is on record?
A: -3.03

Q: Which “soluble fraction (log2)” value does the source give for “HMKIKLQATEQQRKTLDELYVQLKKLEPTSKEDLSLLYRLENPHLVSKQEAQGLISIAIGRVGSLAIEQQ” here?
A: -0.44

Q: Which “soluble fraction (log2)” value does the source give for “HMKINKQHLAFQIFGIRAKLGLSMEQFGELLGANKSSVSGWERGTVVPSSQRLKKIAELGKISLAELLTP” here?
A: -3.01

Q: With “HMKINVQETEVYRYLLERADRLYSMILGEERENLMERTRFFEKEVAKASLPHLPKLYDEFSIYLDRLERG” as the sequence, how does the “soluble fraction (log2)” value read?
A: -0.393

Q: With “HMKIPYGELIKLLNAAAPKLQDAQGWMDMEAAGQFIGSRWSYLDYGFKDWPDSFKTVHGLEIQGQRMRLA” as the sequence, how does the “soluble fraction (log2)” value read?
A: -0.577

Q: With “HMKIQISGSQRIDENVVVKVAGLSFPQSLLSLEPGQIESKLMQELPVQEVSVQRRLLPPGLDIQLVE” as the sequence, how does the “soluble fraction (log2)” value read?
A: -0.0996

Q: Which “soluble fraction (log2)” value does the source give for “HMKIQTYEDFRNAYPDIQGSLFGSAERYKTDLDWGDVAAKYDADEELKNVRNIFQLVRRYEQKYS” here?
A: 0.612

Q: Which “soluble fraction (log2)” value does the source give for “HMKISIPQEYFEIYNVLKQRPMHINEISKILKKPVSEISGTISLMEIEGYITKLTTDQYVLKKI” here?
A: -0.473

Q: Which “soluble fraction (log2)” value does the source give for “HMKITADQEIETAINYFKKSIAEKGWKGVNPDEFKQMNDYLSETFGYSATIKFQKALDEQGLMVDE” here?
A: -0.0068

Q: Which “soluble fraction (log2)” value does the source give for “HMKITININIETLSHHIKQSGVPLGRLQESVPDYNEIVTGNKSPTYQQLEKISKLIRVPLGLLVIESPL” here?
A: 0.039

Q: Which “soluble fraction (log2)” value does the source give for “HMKITLAESVYERIRRDIITNQLKPGEKINIRELSTRYEASETPIRLALNRLASENIIEHFPRQGMRVK” here?
A: -1.4

Q: For “HMKIVPEPGTVLIREYQEERHEVTVTLDGAFDYKGTLYSSLSEIARLITGTRWSGPVFFGLRS”, which “soluble fraction (log2)” value is on record?
A: -0.369

Q: With “HMKIYDQVVDRIKDRISKGDMPQGSALPPERQLIDELNVSRSSLREGFRILEMMGLIESIPGKGRFVRTSR” as the sequence, how does the “soluble fraction (log2)” value read?
A: -0.607

Q: Which “soluble fraction (log2)” value does the source give for “HMKKAIYPGSFDPLTLGHIDIIKRASGIVDELVVGVLNNSAKNSLFSLDERVSMIEEMTKDLPNVSVTSFD” here?
A: 0.16

Q: For “HMKKEDFLEILRDYLKKGFSEDEVMDILRDYEEYFVDGIIEGKSEIEIIQSLGSPKEIANELLAES”, which “soluble fraction (log2)” value is on record?
A: -0.631

Q: Which “soluble fraction (log2)” value does the source give for “HMKKEQVIVPNVVGDTYDVALRKLTDAKLKVGETFPADREGHQGVIEKQSPAAGETVDEDTPVALFFKV” here?
A: 0.0903

Q: For “HMKKERITWDERLERFAKYITENESLPYPSSKEHAWFEENKALYDAGELESVRAQSFSFLLKILRRMNLI”, which “soluble fraction (log2)” value is on record?
A: -0.787

Q: Which “soluble fraction (log2)” value does the source give for “HMKKGATVSGVIVEKTKKSLIIDLGAKTEGVVADKEFEFAIDFVKELKKGDEVKAIVISTDNDKGQVVLSL” here?
A: -0.414

Q: For “HMKKHALFTLFKHHNANGTTVWYARFWDDATQRYAIARSTGVLAQGKRERHDEAITVAREMASSIQFS”, which “soluble fraction (log2)” value is on record?
A: -2.81

Q: With “HMKKHAPSLMRQIRRELKEGKSPESLLSKAKLISDSYYRSLSFYLLIPYLSPNSKQFQEAISLAGKDID” as the sequence, how does the “soluble fraction (log2)” value read?
A: 0.175

Q: With “HMKKKSYIVSFATDEDAQRFAREGFEVISLSGRQITVSLKGEMMPLVKALGSYQVVGLETVA” as the sequence, how does the “soluble fraction (log2)” value read?
A: -1.77

Q: Which “soluble fraction (log2)” value does the source give for “HMKKLPDDANDIIERVSSRLAQKFRFGYHTIDDMKQQAALFAWEGIYDSWDDSRPLENFLWIHVRNRLYN” here?
A: -0.111

Q: Which “soluble fraction (log2)” value does the source give for “HMKKLTGVQKAAILMIALGPDISSSIIKRLPENMVERITYEIANMTKITAQQRNDILKEFMDMTVAQ” here?
A: -3.64

Q: With “HMKKNTEALDYYKKAGANFPEDEVISSEYLFRAAQLQEVLGKTDEAVAIYKDIKAKYPTTEIGLNVDKFIL” as the sequence, how does the “soluble fraction (log2)” value read?
A: 0.0379

Q: Which “soluble fraction (log2)” value does the source give for “HMKKQLKSEAVADELRRKILSGGFPDKRLPRKDELTEYFQVSQKTVEAALKMLTAEGLIRGVKGTGIFVNG” here?
A: -0.703

Q: Which “soluble fraction (log2)” value does the source give for “HMKKQLTISDGDWAGKVSSMLEDMGVINSASEFDKYLSDNGYSNVIKSGTYDVSPEDTFQELAEKIT” here?
A: 0.952

Q: For “HMKKRDAEIMLQREFKLTEAIAMVRDRDIQELLPIALYFKVNINQPTAEIRYNLLNIAKSKTQEFIEAFD”, which “soluble fraction (log2)” value is on record?
A: -2.14

Q: For “HMKKRDANSQGTRLILFYMLQRLHTEYKLQGFVTYNQRRSFREIYDAYHALGGNGFGTAMWEEVKELDLK”, which “soluble fraction (log2)” value is on record?
A: -2.18

Q: With “HMKKTAAKVLGESEGKPVTVQSGRYGPYVQLGSIRATLPKDLEQDDVTLDRALELISAKAERAGK” as the sequence, how does the “soluble fraction (log2)” value read?
A: -0.0332

Q: With “HMKKTDFNVENYDIEELAAILNFKYVPLNQGLIRDRIKDMKQRFKNKPEYIKFFTDVEIKLVNNLNLFN” as the sequence, how does the “soluble fraction (log2)” value read?
A: -1.67

Q: Which “soluble fraction (log2)” value does the source give for “HMKKTFSKSSVMEAIFRDIPNITIPNAHEVYTLIKNISVMNKRKSITSEDIEKAYDALGLTP” here?
A: -0.928

Q: For “HMKKTPLSELTNRAVELFIETVFMERNYSVSSQRQFISALKIFTVFYPQTKIHNLSLERLQSSFDKLLN”, which “soluble fraction (log2)” value is on record?
A: -1.25

Q: With “HMKKTTEFAVTPEFQQRLEASPELKAAFQALTPGRQRAHLLFFAAPKQAQTRQARIEKSLPQIMAGKGLN” as the sequence, how does the “soluble fraction (log2)” value read?
A: -0.2

Q: Which “soluble fraction (log2)” value does the source give for “HMKKTVTDSVELLTFLKDIFTNTSTNKLRKMLTTGRVTVNNIVIHKAKHILVQNDVVEIGDK” here?
A: -3.37

Q: For “HMKKVIEFKDVSFAFEKKPILQDFNLLVQNKDRIGIVGDNGVGKSTLLNLIAERLQPQSGQVII”, which “soluble fraction (log2)” value is on record?
A: 0.111

Q: Which “soluble fraction (log2)” value does the source give for “HMKKVSVKPILELRAAGISMRKIETLMHVSRHTISAIYKAADAYSISWDNVKDFDEDKIYEMLFPPTP” here?
A: -4.13

Q: Which “soluble fraction (log2)” value does the source give for “HMKKYEIIFNDLKQSIVNGKYSNEERLPPEETLAKKYQTSRVPVQQALNALVGIGMVKRIAGSGTYVTY” here?
A: -0.394

Q: For “HMKKYFPPKSRFNPNKYLLKDWMALGLSEKQSQSILNFIQRGIYSNSALEKIYVMPEEVFTLIKDSTYYEE”, which “soluble fraction (log2)” value is on record?
A: -1.38

Q: For “HMKKYIEIYNYYKQLIESEQLKSGDKMPSVRKATKIFNVSKTTVQNAYFDLQADGYIIAAPKSGYYVTEM”, which “soluble fraction (log2)” value is on record?
A: -1.07

Q: Which “soluble fraction (log2)” value does the source give for “HMKKYLNIYNIIVNKIESKEYQSNDKLPSEKELMDQYNVSRDTVRKSLNMLEQNGYIQKTKGKGSFVLDIN” here?
A: -0.865

Q: Which “soluble fraction (log2)” value does the source give for “HMKLEEITIIVPSLRLDNFVSDLARTSRSKAVQIIDSERVFINGQNETKASKQVKLGDVITSA” here?
A: -0.211

Q: With “HMKLHPRDQERTRAISARGERLYAVTVGDLRRRIGEMLEWFGRQIESQEPMRVAKAARRITDFFDQVEAFT” as the sequence, how does the “soluble fraction (log2)” value read?
A: -2.5

Q: Which “soluble fraction (log2)” value does the source give for “HMKLIRLGKAAGELNVGMSTLAEFLQSKGHSVDPNPNTKLTPEQYALLRMEFAADQTLKKLTKQP” here?
A: 0.452

Q: For “HMKLKHANGNHPLTQQEKQNMIEEAAKHYGDYMTALGFDWKQDPNSSDTPMRVAKAFVNDLAEGVY”, which “soluble fraction (log2)” value is on record?
A: 0.0234

Q: For “HMKLLLSANISKLRKKYSMTQEQLAEALGVTFASVSKWERGVATPELKLIAEMADMFEVSIDALIGYEFRN”, which “soluble fraction (log2)” value is on record?
A: -1.87

Q: Which “soluble fraction (log2)” value does the source give for “HMKLPIEKESYRIIWDLEEESFRIRLKISENSPQEEKNILINQAIEDIENITGEPIDKSPYYVLYE” here?
A: -0.627

Q: With “HMKLPNSFGSIQKLSGNRRKPYRVVKTIGWDENGKQIRKTLGYYETRAKALQELALFNEKPYD” as the sequence, how does the “soluble fraction (log2)” value read?
A: -1.72

Q: Which “soluble fraction (log2)” value does the source give for “HMKLTALWTANPKISAPIYSEPSTQSKTLGRIYQGASVKVYSFDPEWAYINSSGVVGYVLRRHLE” here?
A: -2.43
